Assay results as given in patent publication US20240376213A1 (YEDA RESEARCH AND DEVELOPMENT, published 2024).

How the values were obtained:
[1] = biological target: T1, mouse PD-1 on cells (HEK293 cells stably overexpressing mPD-1; PD-1+ CD8+ OT-1 T cells) (mouse, UniProt Q02242 25-288); experiment: dual-binding FACS doublet assay, 1:1 mix of CFSE/CellTrace-stained HEK293 cells expressing each target (FIG. 4A)
T1 construct: whole, on cells; also called HEK293-mPD-1
T1 sequence (looked up): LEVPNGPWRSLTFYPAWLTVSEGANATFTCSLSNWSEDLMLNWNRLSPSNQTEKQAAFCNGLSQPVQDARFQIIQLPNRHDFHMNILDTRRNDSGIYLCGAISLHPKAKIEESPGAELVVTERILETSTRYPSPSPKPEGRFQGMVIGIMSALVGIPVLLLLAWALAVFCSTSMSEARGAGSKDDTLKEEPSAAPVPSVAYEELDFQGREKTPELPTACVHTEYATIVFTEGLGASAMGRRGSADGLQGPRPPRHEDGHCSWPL

[2] = biological target: T2, mouse CLEC9A on cells (HEK293 cells stably overexpressing mCLEC9A; cDC1 among mouse splenocytes) (mouse, UniProt Q8BRU4 1-238); experiment: as above
T2 construct: whole, on cells
T2 sequence (looked up): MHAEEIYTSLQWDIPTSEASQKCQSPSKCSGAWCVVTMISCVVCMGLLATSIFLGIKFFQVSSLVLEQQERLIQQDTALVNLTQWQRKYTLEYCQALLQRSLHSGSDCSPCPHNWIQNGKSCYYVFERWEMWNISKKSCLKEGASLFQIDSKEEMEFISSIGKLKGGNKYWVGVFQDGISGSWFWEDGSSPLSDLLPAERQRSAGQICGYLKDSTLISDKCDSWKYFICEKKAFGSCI

[3] = biological target: T3, recombinant extracellular domain of mouse PD-1 (Sino Biological) (mouse, UniProt Q02242 25-169); experiment: binding ELISA titration on recombinant protein (FIG. 3A)
T3 construct: extracellular domain; Coated on ELISA plates at 1 ug/mL; also called mPD-1; recombinant mouse PD-1
T3 sequence (looked up): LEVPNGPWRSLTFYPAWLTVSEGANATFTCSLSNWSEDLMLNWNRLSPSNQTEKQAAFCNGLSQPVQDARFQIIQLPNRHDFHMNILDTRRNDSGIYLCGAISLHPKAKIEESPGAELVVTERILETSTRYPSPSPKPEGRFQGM

[4] = biological target: T4, mouse XCR1 on cells (HEK293 cells stably overexpressing mXCR1; cDC1 among mouse splenocytes) (mouse, UniProt Q9R0M1 1-322); experiment: FACS binding titration on HEK293-mXCR1 cells (FIG. 3B)
T4 construct: whole, on cells
T4 sequence (looked up): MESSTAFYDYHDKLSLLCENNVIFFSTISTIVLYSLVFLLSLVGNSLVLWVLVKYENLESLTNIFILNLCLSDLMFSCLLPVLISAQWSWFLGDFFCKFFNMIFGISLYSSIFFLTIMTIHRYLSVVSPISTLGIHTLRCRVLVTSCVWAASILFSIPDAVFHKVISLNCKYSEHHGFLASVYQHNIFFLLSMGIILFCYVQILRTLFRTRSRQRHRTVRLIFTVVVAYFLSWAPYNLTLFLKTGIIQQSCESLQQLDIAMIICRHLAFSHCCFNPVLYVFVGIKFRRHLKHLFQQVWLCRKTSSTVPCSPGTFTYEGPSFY

[5] = biological target: T3, recombinant extracellular domain of …; experiment: ELISA on recombinant mouse PD-1 (FIG. 3A)

Measured: binding result

B1: PD-1/CLEC9A BiSE (bispecific immune synapse engager; anti-mouse PD-1 clone RMP1-14 arm x anti-mouse CLEC9A clone 10B4 arm) (bispecific antibody)
heavy 1: not shown
light 1: DIVMTQGTLPNPVPSGESVSITCRSSKSLLYSDGKTYLNWYLQRPGQSPQLLIYWMSTRASGVSDRFSGSGSGTDFTLKISGVEAEDVGIYYCQQGLEFPTFGGGTKLELERTVAAPSVFIFPPSDEQLKSGTASVVCLLNNFYPREAKVQWKVDNALQSGNSQESVTEQDSKDSTYSLSSTLTLSKADYEKHKVYACEVTHQGLSSPVTKSFNRGEC
heavy 2: QIVESGGGLVQPKESLKISCTASGFTFSNAAIYWVRQTPGKGLEWVGRIRTRPSKYATDYADSVRGRFTISRDDSKSMVYLQMDNLRTEDTAMYYCTPRATEDVPFYWGQGVMVTVSSASVAAPSVFIFPPSDEQLKSGTASVVCLLNNFYPREAKVQWKVDNALQSGNSQESVTEQDSKDSTYSLSSTLTLSKADYEKHKVYACEVTHQGLSSPVTKSFNRGECDRSEPKSCDKTHTCPPCPAPELLGGPSVFLFPPKPKDTLMISRTPEVTCVVVDVSHEDPEVKFNWYVDGVEVHNAKTKPREEQYASTYRVVSVLTVLHQDWLNGKEYKCKVSNKALPAPIEKTISKAKGQPREPQVCTLPPSREEMTKNQVSLSCAVKGFYPSDIAVEWESNGQPENNYKTTPPVLDSDGSFFLVSKLTVDKSRWQQGNVFSCSVMHEALHNHYTQKSLSLSPGKSAWSHPQFEK
light 2: DIVMTQTPSSQAVSAGEKVTMNCKSSQSVLYDENKKNYLAWYQQKSGQSPKLLIYWASTGESGVPDRFIGSGSGTDFTLTISSVQAEDLAVYYCQQYYDFPPTFGGGTKLELKSSASTKGPSVFPLAPSSKSTSGGTAALGCLVKDYFPEPVTVSWNSGALTSGVHTFPAVLQSSGLYSLSSVVTVPSSSLGTQTYICNVNHKPSNTKVDKKVEPKSC
notes: Knobs-into-holes, CrossMab (CH1-CL swap on the DC arm), Fc N297A, human IgG1/kappa backbone; copies: 1 + 1 + 1 + 1
binds: [1] | [2] | [3]

B2: PD-1/XCR1 BiSE (bispecific immune synapse engager; anti-mouse PD-1 clone RMP1-14 arm x anti-mouse XCR1 clone MARX10 arm) (bispecific antibody)
heavy 1: not shown
light 1: B1 light 1
heavy 2: QVQLQQPGAELVKPGASVKLSCKASGYTFTNYWIHWMKQRPGQGLEWIGMIHPNSDNTKYNEKFKAKAILTVDKSSSTAYMQLSSLTSEDSAVYYCARFANDGAYWGQGTLVTVSSASVAAPSVFIFPPSDEQLKSGTASVVCLLNNFYPREAKVQWKVDNALQSGNSQESVTEQDSKDSTYSLSSTLTLSKADYEKHKVYACEVTHQGLSSPVTKSFNRGECDRSEPKSCDKTHTCPPCPAPELLGGPSVFLFPPKPKDTLMISRTPEVTCVVVDVSHEDPEVKFNWYVDGVEVHNAKTKPREEQYASTYRVVSVLTVLHQDWLNGKEYKCKVSNKALPAPIEKTISKAKGQPREPQVCTLPPSREEMTKNQVSLSCAVKGFYPSDIAVEWESNGQPENNYKTTPPVLDSDGSFFLVSKLTVDKSRWQQGNVFSCSVMHEALHNHYTQKSLSLSPGKSAWSHPQFEK
light 2: DVVVTQTPLSLPVSLGDPASISCKSSQSLVHSNGNTYLHWYLQKPGQSPKLLIYKISNRFSGVPDRFSGSGSGTDFTLKISRVEAEDLGVYFCSQNTHVPYTFGGGTKLEIKSSASTKGPSVFPLAPSSKSTSGGTAALGCLVKDYFPEPVTVSWNSGALTSGVHTFPAVLQSSGLYSLSSVVTVPSSSLGTQTYICNVNHKPSNTKVDKKVEPKSC
notes: as for B1
binds: [1] | [4] | [5]
